The chains are these.
B1: TPR t1 (parent)
chain: GACCAAUCUGCCCUCAGAGCUCGAGAACAUCUUCGGAUGCAGAGGAGGCAGGCUUCGGUGGCGCGAUAGCGCCAACGUCCUCAACCUCCAAUGCAUCCCACCACAUGAUGAUGCCUGAAGAGCCUUGGUUUUUUG

The data set covers variants of B1. Description: polymerase ribozyme fitness, log enrichment relative to wild type (log ratio); higher = more active; in vitro selection for triplet polymerase activity. In outline:
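A single round of triplicate in vitro selection, including frozen incubation at −7 °C, was applied to PCR-built, transcribed mutant libraries of each subunit of a heterodimeric triplet polymerase ribozyme. Illumina sequencing of input and output libraries retained genotypes with ≥10 input reads and ≥1 read per output. Fitness is the base-2 logarithm of genotype enrichment divided by wild-type enrichment, from inverse-variance-weighted replicate averages.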
Regarding GACCAAUCUGCCCUCAGAGCUCGAGAACAUCUUCGGAUGCAGAGGAGGCAGGCUUCGGUGGCGCGAUAGCGCCAACGUCCUCAACCUCCAAUUCAUCCCACCACAUGAUGAUGCCUGAAGAGCGUUGGUUUUUUG, the “polymerase ribozyme fitness (log ratio)” value is 0.697.

As to GACCAAUCUGCCCUCAGAGCUCGAGAACAUCUUCGGAUGCAGAGGAGGCAGGCUUCGGUGGCGCGAUAGCGCCAACGUCCUCAACCUCCAAUCCAUCCCACCACAUGAUUAUGCCUGAAAAGCCUUGGUUUUUUG, the “polymerase ribozyme fitness (log ratio)” value is -3.34.

With GACCAAUCUGCCCUCAGAGCUCGAGAACAUCUUCGGAUGCAGAGGAGGCAGGCUUCGGUGGCGCGAUAGCGCCAACGUCCUCAACCUCCAAUCCAUCCCACCACAUGAUGAUGCCUGAAGAGCCUUGGUUUUUUC, the “polymerase ribozyme fitness (log ratio)” value was -1.15.

Turning to GACCAAUCUGCCCUCAGAGCUCGAGAACAUCUUCGGAUGCAGAGGAGGCAGGCUUCGGUGGCGCGAUAGCGCCAACGUCCUCAACCUCCAAUCCAUCCCACCACAUGAUGAUGCCUGAAGAGGCUUGGUUUUUUG, the “polymerase ribozyme fitness (log ratio)” value is -0.285.

GACCAAUCUGCCCUCAGAGCUCGAGAACAUCUUCGGAUGCAGAGGAGGCAGGCUUCGGUGGCGCGAUAGCGCCAACGUCCUCAACCUCCAAUCCAUCCCACCACAUGAUGAUGCCUGAAGUGCCUUGGUUUUGUG: the “polymerase ribozyme fitness (log ratio)” value came out at 1.15.

For GACCAAUCUGCCCUCAGAGCUCGAGAACAUCUUCGGAUGCAGAGGAGGCAGGCUUCGGUGGCGCGAUAGCGCCAACGUCCUCAACCUCCAAUCCAUCCCACCACACGAUGACGCCUGAAGAGCCUUGGUUUUUUG, the “polymerase ribozyme fitness (log ratio)” value was 0.785.

Turning to GACCAAUCUGCCCUCAGAGCUCGAGAACAUCUUCGGAUGCAGAGGAGGCAGGCUUCGGUGGCGCGAUAGCGCCAACGUCCUCAACCUCCAAUCCAUCCCACAACAUGAUGAUGCCGGAAGAGCCUUGGUUUUUUG, the “polymerase ribozyme fitness (log ratio)” value was -5.28.

For GACCAAUCUGCCCUCAGAGCUCGAGAACAUCUUCGGAUGCAGAGGAGGCAGGCUUCGGUGGCGCGAUAGCGCCAACGUCCUCAACCUCCAAUUCAGCCCACCACAUGAUGAUGCCUGAAGAGCAUUGGUUUUUUG, the “polymerase ribozyme fitness (log ratio)” value came to 0.232.

As for GACCAAUCUGCCCUCAGAGCUCGAGAACAUCUUCGGAUGCAGAGGAGGCAGGCUUCGGUGGCGCGAUAGCGCCAACGUCCUCAACCUCCAAUCCAUCCCACCACAUGAUGAGGCCUGAAGAGCCUUGGUUUUUUG, the “polymerase ribozyme fitness (log ratio)” value was -0.938.

For the variant GACCAAUCUGCCCUCAGAGCUCGAGAACAUCUUCGGAUGCAGAGGAGGCAGGCUUCGGUGGCGCGAUAGCGCCAACGUCCUCAACCUCCAAUUCAUCCCACCACAUGAUGAUGCAUGAAGAGCCUUGGUUUUUUG, the “polymerase ribozyme fitness (log ratio)” value was -2.49.

Regarding GACCAAUCUGCCCUCAGAGCUCGAGAACAUCUUCGGAUGCAGAGGAGGCAGGCUUCGGUGGCGCGAUAGCGCCAACGUCCUCAACCUCCAAUUCAUCCCACCACAUGAUGAUGCUUGAAGAGCCUUGGUUUUUUG, the “polymerase ribozyme fitness (log ratio)” value was -1.63.

As to GACCAAUCUGCCCUCAGAGCUCGAGAACAUCUUCGGAUGCAGAGGAGGCAGGCUUCGGUGGCGCGAUAGCGCCAACGUCCUCAACCUCCAAUACAUCCCACCACAUGAUGAUGCCUGAAGAGCCUUGGUUUAUUG, the “polymerase ribozyme fitness (log ratio)” value is -1.15.

On to GACCAAUCUGCCCUCAGAGCUCGAGAACAUCUUCGGAUGCAGAGGAGGCAGGCUUCGGUGGCGCGAUAGCGCCAACGUCCUCAACCUCCAAUCCAUCCCACCACAUGAUGAUGCCUGAAGAGCCUUGGAUUUUUG, for which the “polymerase ribozyme fitness (log ratio)” value is -1.91.

For the variant GACCAAUCUGCCCUCAGAGCUCGAGAACAUCUUCGGAUGCAGAGGAGGCAGGCUUCGGUGGCGCGAUAGCGCCAACGUCCUCAACCUCCAAUCCAUCCCACCACAUGAUGAUGCCUCAAGAGCCUUGGUUUUUUG, the “polymerase ribozyme fitness (log ratio)” value was -4.74.

Turning to GACCAAUCUGCCCUCAGAGCUCGAGAACAUCUUCGGAUGCAGAGGAGGCAGGCUUCGGUGGCGCGAUAGCGCCAACGUCCUCAACCUCCAAUCCAUCCCACCACAUGAAGAUGCCUUAACAGCCUUGGUUUUUUG, the “polymerase ribozyme fitness (log ratio)” value is -6.83.

On to GACCAAUCUGCCCUCAGAGCUCGAGAACAUCUUCGGAUGCAGAGGAGGCAGGCUUCGGUGGCGCGAUAGCGCCAACGUCCUCAACCUCCAAUUCAUCCCACCACAUGAUGAUGCCUUAAGAGCCUUGGUUUUUUG, for which the “polymerase ribozyme fitness (log ratio)” value was -3.63.

As to GACCAAUCUGCCCUCAGAGCUCGAGAACAUCUUCGGAUGCAGAGGAGGCAGGCUUCGGUGGCGCGAUAGCGCCAACGUCCUCAACCUCCAAUCCAUCCCACCACAUGAUGAUGCCUGAAGAGCCUUAGUUUUUUG, the “polymerase ribozyme fitness (log ratio)” value is -1.89.

GACCAAUCUGCCCUCAGAGCUCGAGAACAUCUUCGGAUGCAGAGGAGGCAGGCUUCGGUGGCGCGAUAGCGCCAACGUCCUCAACCUCCAAUCCAUCCCACCACAUGAUGAUGCCUGAAUAGCCUUGGUUUUUUG: the “polymerase ribozyme fitness (log ratio)” value is -1.78.

On to GACCAAUCUGCCCUCAGAGCUCGAGAACAUCUUCGGAUGCAGAGGAGGCAGGCUUCGGUGGCGCGAUAGCGCCAACGUCCUCAACCUCCAAUCCAUCCCACCACAUGAUGAUGCCUGAACAGCCUUGGUUUUUUG, for which the “polymerase ribozyme fitness (log ratio)” value was -1.19.

For the variant GACCAAUCUGCCCUCAGAGCUCGAGAACAUCUUCGGAUGCAGAGGAGGCAGGCUUCGGUGGCGCGAUAGCGCCAACGUCCUCAACCUCCAAUUCAUCCCACCACAUGAUGAUGCCUGAAAAGCCAUGGUUUUUUG, the “polymerase ribozyme fitness (log ratio)” value was determined as 0.0882.

GACCAAUCUGCCCUCAGAGCUCGAGAACAUCUUCGGAUGCAGAGGAGGCAGGCUUCGGUGGCGCGAUAGCGCCAACGUCCUCAACCUCCAAUCCAUCCCACCACAUGAUGAUGGCUGAAGAGCCUUGGUUUUUUG: the “polymerase ribozyme fitness (log ratio)” value was -4.17.
